{
  "source": "patent US20260209387A1",
  "about": "“SINGLE-DOMAIN ANTIBODY FOR INHIBITION OF NEUTROPHIL ELASTASE ACTIVITY” (UNIVERSITE DE LIEGE, priority 2023, published 2026)",
  "molecules": {"B1": {"name": "NbE201: anti-hNE ISVD (VHH/nanobody) from immunized lama, amino acid sequence SEQ ID NO: 4 (protein)", "VHH": "QVQLQESGGGLVQAGGSLRLSCVVPGRTISLYRMGWFRQAPGKEREFVAGINWSGDMTDYVDSVKGRFTISRDNAKNTVYLEMNSLKPEDTAIYYCTADPKLLPLADSSYGYWGQGTQVTVSS"}},
  "key": {"[1]": {"molecular_target": "T1, hNE (Homo sapiens, UniProt P08246)", "T1 construct": "purchased Elastin Products Company (EPC)", "T1 sequence (P08246 30-247)": "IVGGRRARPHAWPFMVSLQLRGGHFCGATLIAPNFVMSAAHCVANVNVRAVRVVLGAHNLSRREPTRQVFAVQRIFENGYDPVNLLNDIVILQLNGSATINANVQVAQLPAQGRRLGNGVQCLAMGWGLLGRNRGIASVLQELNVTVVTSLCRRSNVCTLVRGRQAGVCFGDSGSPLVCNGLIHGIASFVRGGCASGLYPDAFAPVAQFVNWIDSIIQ", "experiment": "hNE inhibition, hydrolysis of chromogenic substrate N-Succinyl-Ala-Ala-Ala-paraNitroAnilide", "type": "biochemical", "details": "hNE vs mNE", "description": "Inhibition of the hydrolysis of a chromogenic substrate. […] Briefly, hNE (Elastin products company, EPC, United States) was resuspended at 1 mg·mL^−1 in 50 mM sodium acetate buffer pH 5 containing 100 mM NaCl and stored at 4° C. The substrate Succinyl-Ala-Ala-Ala-paraNitroAnilide was dissolved at 1 mM in 0.1 M Tris pH 7.5 with NaCl 0.5 M and NaN3 0.01% (% w/v) and stored at 4° C. 230 μl of substrate (1 mM) were mixed with 10 μl of Bovine Serum Albumin 9 μM (BSA, Sigma-Aldrich, Germany) and incubated 20 min at 25° C. in a clear flat bottom 96-well plate (Greiner Bio-One, Belgium). […] The absorbance at 410 nm was measured every min for 60 minutes in a SpectraMax M2e Microplates Reader (Molecular Devices, California, USA). The initial velocity determined in the presence of the ISVD at different Nb: hNE ratios was compared to that measured in the absence of the ISVD, to determine the residual activity. […]\nThe absorbance at 410 nm was measured every min for 60 minutes. The initial velocity determined in the presence of the inhibitor at different inhibitor: hNE ratios was compared to that measured in the absence of the inhibitor, to determine the residual activity. […] The hNE activity was monitored at 410 nm for 10 minutes using the spectrophotometer Specord 50 Plus (Analytik Jena) and data were collected with the WinAspectPlus software. […]"}, "[2]": {"molecular_target": "T1, hNE", "experiment": "Stability of NbE201 towards hNE (SDS-PAGE, 37° C.)", "type": "in vitro ADME", "method": "NbE201 (26.4 μM) was incubated at 37° C. alone or in the presence of hNE ([NbE201]: [hNE]=4:1). Aliquots (10 μL) taken at different time intervals were mixed with 4 μL of sample loading buffer (Tris-HCl (pH 6.8), SDS denaturant (4%, % w/v), β-mercaptoethanol (5%, % v/v), bromophenol blue (0.01%, % w/v), glycerol (20%, % v/v), H2O)) and then stored at −20° C. until analysis by SDS-PAGE using 4-20% Mini-PROTEAN TGX Protein Gel, 10 wells, 50 μL (Bio-Rad, Germany). Then, the gel was stained by Coomassie blue, destained in water and imaged using a Gel Doc EZ Imager (Biorad). The relative amount of intact protein was quantified by densitometry analysis with a Gel Doc EZ Imager program using the intensity of the band at time zero as the relative standard. hNE alone was incubated on similar conditions and an aliquot was taken at different time points to measure its activity using N-Succinyl-Ala-Ala-Ala-paraNitroAnilide as substrate as describe above."}, "[3]": {"molecular_target": "T2, mNE (Mus musculus, UniProt Q3UP87)", "T2 sequence (Q3UP87 27-265)": "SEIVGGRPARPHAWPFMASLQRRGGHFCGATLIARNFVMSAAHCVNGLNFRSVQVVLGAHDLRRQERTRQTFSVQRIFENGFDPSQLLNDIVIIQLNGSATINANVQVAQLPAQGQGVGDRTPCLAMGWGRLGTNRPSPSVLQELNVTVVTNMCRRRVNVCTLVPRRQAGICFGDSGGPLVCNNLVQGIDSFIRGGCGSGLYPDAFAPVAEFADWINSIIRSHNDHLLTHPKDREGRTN", "experiment": "Affinity of NbE201 for mNE by BLI", "type": "binding", "method": "For mNE, NbE201_Cter Biot was immobilized on SA biosensors (Sartorius) via the C-terminal biotin following the provider's indications. Then, the biosensors were immersed in a solution of mNE at different concentrations (100-50-25-12.5-6.25-3.125 nM). Association and dissociation kinetics were measured for 300 s and 600 s respectively. All the experiments (for both hNE and mNE) were carried out at 30° C. in 384-wells black-bottom microplates in polypropylene (Greiner Bio-One, Belgium) and with orbital agitation (1000 rpm). The obtained sensorgrams were fitted to a 1:1 model by using the Data Analysis Octet Software Version 10.0 (Sartorius) to derive the rate constants for association (kon) and dissociation (koff) and the equilibrium dissociation constant (KD-koff/kon)."}, "[4]": {"system": "hNE-induced alveolar-capillary damage", "experiment": "hNE-induced acute lung injury mouse model", "type": "in vivo, mice", "details": "nasal instillation 15 min prior to hNE 25 μg; molar ratio Nb/HNE 4/1", "method": "The in vivo efficacy of NbE201 was determined using a mouse model of acute lung injury induced by nasal instillation of HNE (L agente et al., 2009, American Thoracic Society International Conference Abstracts. (American Thoracic Society), A5668. doi: 10.1164/ajrccm-conference.2009.179.1_MeetingAbstracts.A5668). […]\nIt was determined with the hemoglobin assay kit (Sigma) and performed according to the manufacturer's instructions. […] A measurement of the optical density at 400 nm allowed the quantification of this stable complex. […]\nHistological sections of the lung were digitized using a panoramic scan 2 (3[…]). […] This semi-automated analysis made it possible to quantify the damaged alveolar surface. […] The percentage of injured surface was determined by the ratio: % injured area=(injured area/alveolar area)×100"}, "[5]": {"molecular_target": "T1, hNE", "experiment": "BLI specificity assay, hNE positive control", "type": "binding", "details": "50 nM protease", "method": "The specificity of NbE201 for hNE was also investigated by BLI. Biotinylated NbE201 (10 μg/mL) was immobilized on streptavidin biosensors (SA, Sartorius) following provider's indications. The biosensors were then immersed in a 50 nM solution of a serine protease. The proteases tested were human cathepsin G (hCG), human proteinase 3 (hPR3), mouse pancreatic elastase (mPE), mouse neutrophil elastase (mNE) and porcine pancreatic elastase (pPE). hNE was used a positive control. The association and dissociation were measured for 70 s and 320 s respectively, in kinetic buffer (KB, Sartorius). The experiments were carried out at 30° C. in 384-wells black-bottom microplates in polypropylene (Greiner Bio-One, Belgium) and with orbital agitation (1000 rpm)."}},
  "data": [
    {"molecule": "B1", "values": [
      {"measurement": "inhibitory activity to hNE relative to mNE", "setting": "[1]", "value": "about 10 times"},
      {"measurement": "time NbE201 is stable in presence of hNE", "setting": "[2]; 37° C., [NbE201]:[hNE] 4:1", "value": 14, "unit": "days"},
      {"measurement": "percentage of remaining complex (intact NbE201) over time", "setting": "[2]; in presence of hNE, [NbE201]:[hNE] 4:1, 37° C., 14 days", "value": "around 100%"},
      {"measurement": "koff", "setting": "[3]", "value": 0.019, "unit": "s⁻¹"},
      {"measurement": "kon", "setting": "[3]", "value": 390000, "unit": "M⁻¹ s⁻¹"},
      {"measurement": "protection against hNE-induced alveolar-capillary damage", "setting": "[4]", "value": "protects the lungs from developing alveolar-capillary damage"},
      {"measurement": "binding to hNE by BLI (positive control)", "setting": "[5]", "value": "association signal"}
    ]}
  ]
}
